Patent US20030073808A1 (KIMBERLY CLARK WORLDWIDE, published 2003)
Primed or numbered codes have the meaning given here. Where no end group is shown, it is not given here. PSDE = pyridine disulfide ethylenediaminetetraacetic acid; AFTA = 2-amino-4-fluorophenol N,N,O-triacetic acid; AFTA″ = not defined here

Key:
Active MMP-9 enzyme [1] = molecular target: T1, Active MMP-9 enzyme (UniProt P14780 107-707, limits assumed); experiment: enzyme inhibition of MMP-9 (FRET substrate peptide cleavage, inhibitory constants derived from the curves)
T1 construct: Bought as 'Active MMP-9 enzyme' from Calbiochem
Protocol: FIG. 4 illustrates ChePep-5 regulation of MMP-9 via FRET assay. ChePep-5 is composed of a AFTA combined with a peptide having SEQ ID No. 7. ChePep-5 was incubated with MP-9 for 10 minutes to effect binding. This mixture was added to the FRET substrate peptide in reaction buffer. Fluorescence measurements were made at the indicated times. The curves represent ChepPep-5: MMP-9 molar stoichiometries of 0:1 (closed circles), 0.1:1 (open circles), 0.2:1 (closed squares), 0.3:1 (open squares). Excitation was at 365 nm, and the emission was fixed at 450 nm.
The second assay utilized the technique of fluorescence resonance energy transfer (FRET). The substrate peptide (Calbiochem #444221) comprised seven amino acids, coupled to a carboxyl terminal dinitrophenyl acceptor, and an amino terminal 2-aminobenzo-anthraniloyl (Abz) moiety donor. Cleavage of this substrate by MMP-9 results in the liberation of a fluorescent product (365 nm excitation, 450 nm emission). […] MMP at a concentration of 0.1 μM was mixed with varying amounts of chelating peptide (0, 0.01, 0.02, 0.04, and 0.1 μM) and incubated at 25° C. for 10 minutes to effect binding. The protein mixture was added to the peptide substrate and mixed quickly. Fluorescence intensity as a function of time was measured with a Dynex MFX fluorescence microtiter plate reader. Fluorescence intensity was related back to moles of peptide cleaved by producing a standard curve with an Abz containing non-FRET peptide. Inhibitory constants were derived from the curves and are listed below in Table 2.

Active MMP-9 enzyme [2] = molecular target: T1, Active MMP-9 enzyme; experiment: enzyme inhibition of MMP-9 (fluorescent substrate cleavage, inhibitory constants derived from the curves)
Protocol: Two enzymatic assays were performed. The first assay measured the enzymatic hydrolysis of fluoresceinated collagen by MMP-9 as a function of time. Fluoresceinated collagen (Molecular Probes, Inc.), at a concentration of 5 μM was added to reaction buffer (50 mM Tris-HCl (pH 7.6), 150 mM NaCl, 5 mM CaCl₂, 0.1 mM NaN₃) and was placed into a Spectrosil quartz fluorometer cuvette. MMP at a concentration of 0.1 μM was mixed with varying amounts of chelating peptide having SEQ ID No. 4 or 6 and incubated at 25° C. for 10 minutes to effect binding. The protein mixture was added to the collagen substrate and mixed quickly. Fluorescence emission intensity at 520 nm was measured as a function of time (excitation wavelength 495 nm) in a Shimadzu RF5301 fluorometer. The fluorescein release assay was used to determine the inhibitory constant (Kᵢ) of the chelating peptide inhibitor ([I]) according to Segel (1993) via the use of Dixon plots (1/v vs. [I]), such that: […]

T1 sequence (P14780 107-707 limits assumed): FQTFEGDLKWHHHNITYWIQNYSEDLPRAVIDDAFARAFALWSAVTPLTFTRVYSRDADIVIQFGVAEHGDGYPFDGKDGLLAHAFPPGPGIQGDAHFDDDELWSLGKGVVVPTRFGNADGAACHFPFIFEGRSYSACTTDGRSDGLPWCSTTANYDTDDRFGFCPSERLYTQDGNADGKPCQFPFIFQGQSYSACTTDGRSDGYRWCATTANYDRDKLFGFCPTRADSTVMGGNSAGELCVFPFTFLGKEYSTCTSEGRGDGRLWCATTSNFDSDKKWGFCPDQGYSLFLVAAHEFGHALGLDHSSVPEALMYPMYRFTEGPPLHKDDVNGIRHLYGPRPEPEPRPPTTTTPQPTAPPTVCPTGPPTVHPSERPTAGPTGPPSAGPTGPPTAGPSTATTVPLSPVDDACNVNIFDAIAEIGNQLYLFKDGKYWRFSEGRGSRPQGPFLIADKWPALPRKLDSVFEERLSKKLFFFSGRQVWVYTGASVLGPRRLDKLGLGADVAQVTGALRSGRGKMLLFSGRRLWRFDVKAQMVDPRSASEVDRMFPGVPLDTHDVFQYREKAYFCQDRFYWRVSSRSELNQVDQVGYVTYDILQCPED

Binder	Ki (Active MMP-9 enzyme [1])	Ki (Active MMP-9 enzyme [2])
{AFTA}-VHTHLCD (also called ChepPep-5) [ChePep-5 (AFTA combined with a peptide having SEQ ID No. 7)]	221 µM	–
C(PSDE)SAVPVH (Synthetic TIMP-derived peptide covalently coupled to a small-molecule zinc chelator (PSDE); also called ChepPep-1; zinc chelating peptide) [ChePep-1 (PSDE coupled with the peptide having SEQ ID No. 4)]	–	98 µM
D(IDA)SAVPVH-NH2 [ChePep-2 (IDA coupled with a peptide having SEQ ID No. 5)]	67 µM	–
{AFTA″}-CTCVP (cysteine pairing not given here; reading uncertain, also called ChepPep-6; chelating peptide (CP)) [ChePep-6 (AFTA combined with a peptide having SEQ ID No. 8)]	125 µM	–
IYTAC(PSDE)MSAV (not fully specified (C-terminus)) [ChePep-3 (PSDE combined with a peptide having SEQ ID No. 6)]	350 µM	–
